The values below come from patent US20160114017A1 (UNIVERSITY OF PITTSBURGH OF THE COMMONWEALTH SYSTEM OF …, published 2016).

The experiment concerns the target T1, HLA-A2 on the cell surface (HLA-A2 transfected T2 cell line; SNB19 glioma cells) (human).
T1 construct: whole, on cells; Class I MHC on cells; also called HLA-A*0201
Description: T2 cell HLA-A2 stabilisation, flow cytometry, peptide 1 nM overnight. The procedure: The binding capability of these modified peptides was assessed using an HLA-A2 transfected T2 cell line. Aliquots of T2 cells were incubated with modified peptides or IL-13Rα2₃₄₅₋₃₅₃ at 1 nM overnight, and then examined for the surface expression levels of HLA-A2 on T2 cells by flow cytometry. Since stable binding of HLA-A2 with peptide epitopes further stabilizes the surface expression of HLA-A2 (Francini et al., 2002; Alves et al., 2003), quantitative expression levels of HLA-A2, which is indicated by Mean Fluorescence Intensity (MFI) in Table 1, correlate with the binding affinity of the peptide-epitopes that are co-incubated with the T2 cells.
Background: Flow cytometry measures light scatter and fluorescence of single cells or particles in a stream.

B1: Native IL-13Rα2345-353 peptide (peptide)
peptide: WLPFGFILI
notes: Synthetic peptide incubated with T2 cells at 1 nM overnight; also called IL-13Rα345-353; wild type IL-13Rα2345-353
In the case of B1, the “Binding Index (MFI)” value worked out at 237 MFI.

B2: IL-13Rα2-V9 peptide (I replaced with V at P9) (peptide)
peptide: WLPFGFILV
notes: Synthetic modified peptide; also called IL-13Rα2345-9V
For B2, the “Binding Index (MFI)” value stood at 376 MFI.
